# Results published in patent publication US10624968B2, “Compounds for treating cancer” (Bicycle Therapeutics Limited, priority 2017, dated 2020).
# Where two headings read alike, the source gives them in different places. Starred links: 1 amine or outer side, 2 acyl side, 3 side chain; linkers in the order of their positions; H or OH if unused. Positions of bridges follow the written chain, without caps; N, C: chain ends. Non-standard residues stand in square brackets, D forms with d. Residues, ends and D or L forms follow the SMILES beside them. Chains are numbered I, II in the order given. ξ: configuration not given here. *: point of attachment. Dolaproine = CO[C@@H]([C@@H]1CCCN1)[C@@H](C)C(=O)O; Dil = CC[C@H](C)[C@H](NC)[C@@H](CC(=O)O)OC; TBMB = c1c(C[*:1])cc(C[*:3])cc1C[*:2]; X2 = O=C(CCCC(=O)[*:2])NCCC(=O)[*:1]; PABC = O=C(OCc1ccc(N[*:1])cc1)[*:2]; X1 = C[C@@H](N*)[C@@H](O)c1ccccc1; ξ1Nal = NC(Cc1cccc2ccccc12)C(=O)O; Cit = NC(=O)NCCC[C@H](N)C(=O)O; NMeV = CN[C@H](C(=O)O)C(C)C; ξY = NC(Cc1ccc(O)cc1)C(=O)O; ξTle = CC(C)(C)C(N)C(=O)O; ξF = NC(Cc1ccccc1)C(=O)O; ξE = NC(CCC(=O)O)C(=O)O; ξD = NC(CC(=O)O)C(=O)O; ξN = NC(=O)CC(N)C(=O)O; ξC = NC(CS)C(=O)O; ξA = CC(N)C(=O)O; Sar = CNCC(=O)O
# Columns and labels:
# EBC-1 = assay: cells; details: read-out: Re IC50; EBC-1; 72 hours
# Text: (§1) Details of the initial cell plating procedure are described in Table 3.
# (§2) Data Details for Tables 5 and 6. Inhibition %=(Max−Sample value)/(Max−Min)*100.
# (§3) The IC50 curves were generated by 4 Parameter Logistic Model—Sigmoidal Dose-Response Model as follows: Y=Bottom+(Top−Bottom)/(1+10^((log EC50-X)*HillSlope)).
# HCC1806 = assay: cells; details: read-out: Re IC50; HCC1806; 72 hours
# Text: as §1, §2, §3
# HCT15 = assay: cells; details: read-out: Re IC50; HCT15; 72 hours
# Text: as §1, §2, §3
# HT1080 = assay: cells; details: read-out: Re IC50; HT1080; 72 hours
# Text: as §1, §2, §3
# HT29 = assay: cells; details: read-out: Re IC50; HT29; 72 hours
# Text: as §1, §2, §3
# MDA-MB-231 = assay: cells; details: read-out: Re IC50; MDA-MB-231; 72 hours
# Text: as §1, §2, §3
# MOLP-8 = assay: cells; details: read-out: Re IC50; MOLP-8; 72 hours
# Text: as §1, §2, §3
# NCI-H1975 = assay: cells; details: read-out: Re IC50; NCI-H1975; 72 hours
# Text: as §1, §2, §3
# NCI-H292 = assay: cells; details: read-out: Re IC50; NCI-H292; 72 hours
# Text: as §1, §2, §3
# PC-3 = assay: cells; details: read-out: Re IC50; PC-3; 72 hours
# Text: as §1, §2, §3
# SNU-16 = assay: cells; details: read-out: Re IC50; SNU-16; 72 hours
# Text: as §1, §2, §3
# [1] = Body weight of mice bearing EBC-1 xenograft (indirect measure of toxicity); format: in vivo, mouse
# Description: All the procedures related to animal handling, care and the treatment in the study were performed according to the guidelines of the Association for Assessment and Accreditation of Laboratory Animal Care (AAALAC). At the time of routine monitoring, the animals were daily checked for any effects of tumor growth and treatments on normal behavior such as mobility, food and water consumption (by looking only), body weight gain/loss (body weights were measured every day), eye/hair matting and any other abnormal effect as stated in the protocol. Death and observed clinical signs were recorded on the basis of the numbers of animals within each subset.
# Animal body weight was monitored regularly as an indirect measure of toxicity.
# L540 cells = assay: Cytotoxicity in L540 cells in presence and absence of 1 mM bacitracin (ATPlite, 72 hour exposure); format: cell-based
# Description: L540 cells (DSMZ # ACC72, BIC5121), maintained in RPMI-1640 medium (Sigma # R8758)+20% heat-inactivated serum
# L540—20 k cells/well: 40% confluent upon dosing.
# Bacitracin=1 mM final concentration. This requires a 10 mM concentration with no DMSO.
# Add 100 μL reagent per well. […] Shake for 20 mins before reading luminescence
# [2] = Plasma stability (LC-MS/MS assay), mouse plasma, with and without AEBSF; format: in vitro ADME
# Description: I-1a plasma stability studies were conducted in human and mouse plasma.
# In vitro plasma stability assay measures the extent of degradation of compounds in plasma.
# Peptides or BDCs are incubated at 37° C. in plasma (mouse or human) at low micromolar concentrations for several hours. The stability is quantitatively measured by LC-MS/MS.
# Add 8 μL of the 160 μM DMSO stock of peptide or BDC and add 8 μL of 160 μM DMSO stock of 06-34-18-N182 as internal standard to 304 μL of plasma (152 μL*2) for a final concentration of 4 μM (5% DMSO).
# Incubate at 37° C. in 100% humidity.
# Pipette out 40 μL for 7 timepoints: time 0, 1 h, 2 h, 4 h, 6 h, 8 h, 24 h into a 1.5 mL Eppendorf. Store at −80° C. immediately. (total volume of samples?×40=280 μL).
# Add to the sample the extraction solvent. The extraction solvent contains 1 part of water, 3 parts of methanol, and 3 parts of acetonitrile.
# To the time course samples add 120 μL of extraction solvent, mix thoroughly with pipette and gently vortex.
# Centrifuge for 40 minutes at 14000 rpm at 4° C.
# Transfer the supernatant to the LC-MS vials and run the experiment immediately afterwards.
# It is recommend to follow one transition for the peptide of BDCs to study, and one transition for the internal standard 06-34-18-N182 at the same time. The most relevant Selected Ion Reaction (SIR) and Multiple Reaction Monitoring (MRM) transitions were determined for each peptide or BDC.
# The analysis of the data has been performed using “QuanLynks” and “Sigmaplot” software.
# For the studies depicted in FIGS. 1-3, the following conditions were used.
# Column: Waters ACQUITY CSH Phenyl-Hexyl 1.7 μm 2.1×50 mm
# Mobile Phase: […] ammonium bicarbonate in water; B=5 mM ammonium bicarbonate 10% water in acetonitrile.
# Gradient: 5 to 60% B in 4 minutes at 0.6 mL/min flow.
# To test the hypothesis that plasma instability in mouse was due to Ces1c, I-1a was incubated in mouse plasma both in the presence and absence of AEBSF,
# Additionally, formation of the MMAE metabolite in mouse plasma (release of the toxin) was monitored both in the presence and absence of AEBSF.
structure (smiles),measurement,setting,value
CC[C@H](C)[C@@H]([C@@H](CC(=O)N1CCC[C@H]1[C@H](OC)[C@@H](C)C(=O)N[C@H](C)[C@@H](O)c1ccccc1)OC)N(C)C(=O)[C@@H](NC(=O)[C@H](C(C)C)N(C)C(=O)OCc1ccc(NC(=O)[C@H](CCCNC(N)=O)NC(=O)[C@@H](NC(=O)CCCC(=O)NCCC(=O)N(C)CC(=O)N(C)CC(=O)N(C)CC(=O)N(C)CC(=O)N(C)CC(=O)N(C)CC(=O)N(C)CC(=O)N(C)CC(=O)N(C)CC(=O)N(C)CC(=O)NC(C)C(=O)NC2CSCc3cc4cc(c3)CSCC(NC(=O)C(C)NC(=O)C(Cc3cccc5ccccc35)NC(=O)C(CCC(=O)O)NC(=O)C(CC(N)=O)NC(=O)C(C)NC2=O)C(=O)NC(CCC(=O)O)C(=O)NC(CC(=O)O)C(=O)NC(Cc2ccccc2)C(=O)NC(Cc2ccc(O)cc2)C(=O)NC(CC(=O)O)C(=O)NC(C(C)(C)C)C(=O)NC(C(N)=O)CSC4)C(C)C)cc1)C(C)C (some centres unmarked) [Compound I-1a] (I: [Sar][Sar][Sar][Sar][Sar][Sar][Sar][Sar][Sar][Sar][ξA][ξC][ξA][ξN][ξE][ξ1Nal][ξA][ξC][ξE][ξD][ξF][ξY][ξD][ξTle][ξC]-NH2 / II: V[Cit][PABC][NMeV]V[Dil][Dolaproine]-X1; linker I:12-I:18-I:25 via TBMB; linker I:N-II:N via X2),IC50,EBC-1,0.0357 µM
same,IC50,HCC1806,0.0152 µM
same,IC50,HCT15,> 5 µM
same,IC50,HT1080,0.0214 µM
same,IC50,HT29,0.219 µM
same,IC50,MDA-MB-231,0.211 µM
same,IC50,MOLP-8,0.197 µM
same,IC50,NCI-H1975,0.0242 µM
same,IC50,NCI-H292,0.0562 µM
same,IC50,PC-3,0.102 µM
same,IC50,SNU-16,0.0633 µM
same,Body Weight,"[1]; 1 mg/kg i.v. tiw x2 w, day 0",23.4 g
same,Body Weight,"[1]; 1 mg/kg i.v. tiw x2 w, day 2",23.3 g
same,Body Weight,"[1]; 1 mg/kg i.v. tiw x2 w, day 4",23.6 g
same,Body Weight,"[1]; 1 mg/kg i.v. tiw x2 w, day 7",23.8 g
same,Body Weight,"[1]; 1 mg/kg i.v. tiw x2 w, day 9",24.0 g
same,Body Weight,"[1]; 1 mg/kg i.v. tiw x2 w, day 11",24.0 g
same,Body Weight,"[1]; 1 mg/kg i.v. tiw x2 w, day 14",23.8 g
same,Body Weight,"[1]; 3 mg/kg i.v. tiw x2 w, day 0",21.9 g
same,Body Weight,"[1]; 3 mg/kg i.v. tiw x2 w, day 2",21.4 g
same,Body Weight,"[1]; 3 mg/kg i.v. tiw x2 w, day 4",21.7 g
same,Body Weight,"[1]; 3 mg/kg i.v. tiw x2 w, day 7",22.3 g
same,Body Weight,"[1]; 3 mg/kg i.v. tiw x2 w, day 9",22.4 g
same,Body Weight,"[1]; 3 mg/kg i.v. tiw x2 w, day 11",22.0 g
same,Body Weight,"[1]; 3 mg/kg i.v. tiw x2 w, day 14",22.0 g
same,Body Weight,"[1]; 10 mg/kg i.v. tiw x2 w, day 0",23.1 g
same,Body Weight,"[1]; 10 mg/kg i.v. tiw x2 w, day 2",21.8 g
same,Body Weight,"[1]; 10 mg/kg i.v. tiw x2 w, day 4",20.8 g
same,Body Weight,"[1]; 10 mg/kg i.v. tiw x2 w, day 7",19.3 g
same,Body Weight,"[1]; 10 mg/kg i.v. tiw x2 w, day 9",22.0 g
same,Body Weight,"[1]; 10 mg/kg i.v. tiw x2 w, day 11",20.6 g
same,Body Weight,"[1]; 10 mg/kg i.v. tiw x2 w, day 14",22.4 g
same,effect on body weight (in words),"[1]; 10 mg/kg, 3× weekly schedule for two weeks",brief body weight loss which is reversible upon discontinuation of treatment
same,IC50,"L540 cells; 72 hour exposure (low/no MT1 expression), no block, read-out: Standard IC50",1.09 µM
same,Fold shift with bacitracin,"L540 cells; 72 hour exposure, 1 mM bacitracin vs none",2.3
same,IC50,"L540 cells; read-out: IC50 with 1 mM bacitracin, 72 hour exposure, + 1 mM bacitracin",2.55 µM
same,half-life at 4 μM,"[2]; mouse plasma without AEBSF, pH 7.4 at 37° C.",24 h
same,"remaining at 24 h, 4 μM","[2]; mouse plasma without AEBSF, pH 7.4 at 37° C., read-out: % remained after 24 hours incubation",50%
same,formation of the MMAE metabolite (release of the toxin),"[2]; mouse plasma, in the absence of AEBSF",I-1a degradation tracks with the appearance of free MMAE
same,formation of the MMAE metabolite (release of the toxin),"[2]; mouse plasma, in the presence of AEBSF",lack of formation of free MMAE
same,half-life at 1 μM,"[2]; mouse plasma, 1 μM, pH 7.4 at 37° C.",6.4 h
same,"remaining at 24 h, 1 μM","[2]; mouse plasma, 1 μM, pH 7.4 at 37° C., read-out: % remained after 24 hours incubation",57%
same,half-life at 4 μM,"[2]; with AEBSF (concentration not stated), mouse plasma +AEBSF, pH 7.4 at 37° C.",> 24 h
same,"remaining at 24 h, 4 μM","[2]; with AEBSF (concentration not stated), mouse plasma +AEBSF, pH 7.4 at 37° C., read-out: % remained after 24 hours incubation",100%
